Results reported in patent publication US8796201B2 (The Board of Trustees of the Leland Stanford Junior …, priority 2002, dated 2014).

B1: MX PEP: novel recombinant prolyl endopeptidase from Myxococcus xanthus (Genbank AF127082, SEQ ID NO:47) (protein, listed as Myxococcus xanthus)
chain: MSYPATRAEQVVDTLHGVQVADPYRWLEDEKAPEVQTWMTAQNAHAREALAKFPGREALAARFKELFYTDSVSTPSRRNGRFFYVRTHKDKEKAILYWRQGESGQEKVLLDPNGWSKDGTVSLGTWAVSWDGKKVAFAQKPNAADEAVLHVIDVDSGEWSKVDVIEGGKYATPKWTPDSKGFYYEWLPTDPSIKVDERPGYTTIRYHTLGTEPSKDTVVHERTGDPTTFLQSDLSRDGKYLFVYILRGWSENDVYWKRPGEKDFRLLVKGVGAKYEVHAWKDRFYVLTDEGAPRQRVFEVDPAKPARASWKEIVPEDSSASLLSVSIVGGHLSLEYLKDATSEVRVATLKGKPVRTVQLPGVGAASNLMGLEDLDDAYYVFTSFTTPRQIYKTSVSTGKSELWAKVDVPMNPEQYQVEQVFYASKDGTKVPMFVVHRKDLKRDGNAPTLLYGYGGFNVNMEANFRSSILPWLDAGGVYAVANLRGGGEYGKAWHDAGRLDKKQNVFDDFHAAAEYLVQQKYTQPKRLAIYGGSNGGLLVGAAMTQRPELYGAVVCAVPLLDMVRYHLFGSGRTWIPEYGTAEKPEDFKTLHAYSPYHHVRPDVRYPALLMMAADHDDRVDPMHARKFVAAVQNSPGNPATALLRIEANAGHGGADQVAKAIESSVDLYSFLFQVLDVQGAQGGVAAQGR
B2: PEP: prolyl endopeptidase; Examples 1-2: from Flavobacterium meningosepticum (US Biological); Example 11: source not stated (protein, UniProt P27028 21-705, looked up)
Prolyl endopeptidase: QNSNVLKYPETKKVSHTDTYFGTQVSDPYRWLEDDRAEDTKAWVQQEVKFTQDYLAQIPFRDQLKKQLMDIWNYEKISAPFKKGKYTYFSKNDGLQAQSVLYRKDAAGKTEVFLDPNKFSEKGTTSLASVSFNKKGTLVAYSISEGGSDWNKIIILDAETKKQLDETLLDVKFSGISWLGDEGFFYSSYDKPKEGSVLSGMTDKHKVYFHKLGTKQSQDELIIGGDKFPRRYIGAYVTDDQRYLVVSAANATNGNELYIKDLKNKTDFIPIITGFDSNVNVADTDGDTLYLFTDKDAPNKRLVKTTIQNPKAETWKDVIAETSEPLEINTGGGYFFATYMKDAIDQVKQYDKNGKLVRAIKLPGSGNASGFGGEKTEKDLYYSFTNYITPPTIFKYNVTTGNSEVYQKPKVKFNPENYVSEQVFYTSSDGTKIPMMISYKKGLKKDGKNPTILYSYGGFNISLQPAFSVVNAIWMENGGIYAVPNIRGGGEYGKKWHDAGTKMQKKNVFNDFIAAGEYLQKNGYTSKEYMALSGRSNGGLLVGATMTMRPDLAKVAFPGVGVLDMLRYNKFTAGAGWAYDYGTAEDSKEMFEYLKSYSPVHNVKAGTCYPSTMVITSDHDDRVVPAHSFKFGSELQAKQSCKNPILIRIETNAGHGAGRSTEQVVAENADLLSFALYEMGIKSLK

Tests used:
[1] = Retention of PEP activity on lyophilization, enteric coating, storage and tabletting; type: physicochemical
Protocol: Lyophilization of M. xanthus PEP was performed as follows. The PEP was purified as described in Example 3, and concentrated to an initial concentration of 7.7 mg/ml by Tangential-Flow Filtration (TFF) using a 10K MWCO Pellicon difiltration membrane (Millipore, PLCGC10, 50 cm, Cat. No. PXC010C50). TFF (using a LabScale TFF from Millipore, Cat. No. 29751) was performed for approximately 12 hours (pressure of 50 psi (retentate)/30 psi (permeant)), with periodic addition to the reservoir of 50 mM Sodium Phosphate, 3% Sucrose pH 7.5. Thereafter, PEG-4000 was added with a target concentration of 1%. The final protein concentration was 70-100 mg/ml. This material was centrifuged, then lyophilized. The lyophilization was performed in square petri dishes (Falcon Cat. No. 35-1112) in a DuraStop lyophilizer using parameters outlined in the Table below. Typically, 0.7-0.85 mg PEP was present per mg of lyophilized material.
The enteric coating was mixed vigorously in a beaker on a stir plate. The solution was then decanted into a spray bottle. Rat capsules were carefully spread on paper towels in groups of 20 and the enteric coating solution sprayed onto the capsules. Warm air was used to partially dry the capsules before moving them to a dry paper towel where they air-dried for 30 minutes before the next coat was applied. A total of 3 coats were applied in order to cover all sides of the capsules. […]

PQPQLPYPQPQLP = test: Acceleration of brush border mediated digestion by exogenous endoproteases; type: biochemical, wheat
Protocol: FIG. 3. Dose dependent acceleration of brush border mediated digestion by exogenous endoproteases. […] This peptide was digested with 27 ng/μl brush border membranes, either alone, with increasing amounts of exogenous prolyl endopeptidase (PEP, specific activity 28 μU/pg) from Flavobacterium meningosepticum (US Biological, MA), or with additional elastase (E-1250, Sigma, Mo.), bromelain (B-5144, Sigma, Mo.) or papain (P-5306, Sigma, Mo.) (12). After one hour, the fraction of remaining (SEQ ID NO:4) […] (compared to the initial amount at t=0 min) was analyzed and quantified as in FIG. 1.
Alerted by the high proline content as a hallmark of most immunogenic gliadin peptides, a proline-specific endopeptidase was tested for the generation of new, free peptide termini. A literature search on available proteases led to the identification of prolyl endopeptidase (PEP) from Flavobacterium meningosepticum, which is specific for the C-terminal cleavage of prolines and readily available from recombinant sources (Yoshimoto et al. (1991) J. Biochem. 110, 873-8). The stable (SEQ ID NO:4) […] intermediate was digested with BBM in the presence of exogenous PEP. […] As little as 3.5 pg PEP/27 ng BBM protein was sufficient to double the extent of proteolysis of this gliadin fragment compared to incubation with BBM alone. In comparison, other commonly used proteases like papain, bromelain or porcine elastase were much less efficient, requiring 30-fold (papain) or 3000-fold (bromelain, elastase) higher amounts of enzyme compared to PEP to give similar results. Their proteolysis was restricted to the cleavage of the Gln^4-Leu^5 and/or Gln^11-Leu^12 bonds.
A similar preferential cleavage was found for (SEQ ID NO:1) QLQPFP^↓QPQLPY. This is in agreement with the preference of this prolyl endopeptidase for a second proline in the S2′ position (Bordusa and Jakubke (1998) Bioorg. Med. Chem. 6, 1775-80). Based on this P^↓XP motif and on the present data, up to 16 new, major cleavage sites can be predicted in the α2-gliadin sequence, a major source of immunodominant epitopes identified thus far upon PEP treatment. All of them are located in the critical N-terminal part. The internal cleavage by PEP can be expected to generate additional (otherwise inaccessible) substrates for DPP IV and DCP thereby complementing the natural assimilation process of gliadins by the BBM. Thus, the specificity of prolyl endopeptidase is ideally suited for detoxification of persistent immunoactive gliadin peptides in Celiac Sprue.

Molecule | specific activity upon lyophilization [1] | preferred cleavage bond in PQPQLPYPQPQLP (PQPQLPYPQPQLP) | amount sufficient to double the extent of proteolysis of PQPQLPYPQPQLP compared to BBM alone (PQPQLPYPQPQLP; 27 ng/μl BBM, one hour) [pg PEP/27 ng BBM protein]
B1 | No loss of specific activity | – | –
B2 | – | Pro^8-Gln^9 and to a lesser extent the Pro^6-Tyr^7 bond | 3.5
